B1: library; numbered along this chain (parent)
chain: MAAAAAAAAEQQSSNGPVKKSMREKAVERRSVNKEHNSNFKAGYIPIDEDRLHKTGLRGRKGNLAICVIILLFILAVINLIITLVIWAVIRIGPNGCDSMEFHESGLLRFKQVSDMGVIHPLYKSTVGGRRNENLVITGNNQPIVFQQGTTKLSVENNKTSITSDIGMQFFDPRTQNILFSTDYETHEFHLPSGVKSLNVQKASTERITSNATSDLNIKVDGRAIVRGNEGVFIMGKTIEFHMGGNMELKAENSIILNGSVMVSTTRLPSSSSGDQLGSGDWVRYKLCMCADGTLFKVQVTSQNMGCQISDNPCGNTH

Variants of: B1
Assay: SGCB cell-surface expression functional score (HA stain, bin4 vs bin1, normalised to synonymous) (log10 ratio); higher = more cell-surface SGCB (functional)
Method in brief: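 Sorting and sequencing yield the functional score, defined as the log ratio of a variant's highest-bin frequency to its lowest-bin frequency, with the median taken over codons and replicate transductions. The libraries, codon-saturation sets of HA-tagged, YFP-fused human beta-sarcoglycan, went into HEK293 cells stably carrying alpha-, gamma- and delta-sarcoglycan by duplicate lentiviral transduction at MOI <0.1. Cells were stained on ice with Alexa Fluor 647 anti-HA, fixed and split into four 5% intensity bins, and synonymous variants were scaled per section to mean 0, SD 0.5.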

MAAAAAAAAEQQSSNGPVKKSMREKAVERRSVNKEHNSNFKAGYIPIDEDRLHKTGLRGRKGNLAICVIILLFILAVINLIITLVIWAVIRIGPNGCDSMEFHESGLLRFKQVSDMGVIHPLYKSTVGGRRNENLVITGNNQPIVFQQGTTKLSVENNKTSITSDIGMQFFDPRTQNILFSTDYETHEFHLPSGVKSLNVQKASTERITSNATSDLNIKVDGRAIVRGNEGVFIMGKTIEFHMGGNMELKAENSIILNGSVMVSTTRLPSSSSGDQLGSGDWVRYKLCMCADGTLFKVQVTSQNMGCQISDNPCGNQH [T317Q] and MAAAAAAAAEQQSSNGPVKKSMREKAVERRSVNKEHNSNFKAGYIPIDEDRLHKTGLRGRKGNLAICVIILLFILAVINLIITLVIWAVIRIGPNGCDSMEFHESGLLRFKQVSDMGVIHPLYKSTVGGRRNENLVITGNNQPIVFQQGTTKLSVENNKTSITSDIGMQFFDPRTQNILFSTDYETHEFHLPSGVKSLNVQKASTERITSNATSDLNIKVDGRAIVRGNEGVFIMGKTIEFHMGGNMELKAENSIILNGSVMVSTTRLPSSSSGDQLGSGDWVRYKLCMCADGTLFKVQVTSQNMGCQISDNPCGNSH [T317S] are within 0.2 log units of each other in “SGCB cell-surface expression functional score (log10)” value: 0.03 for the first, 0.15 for the second.

First: MAAAAAAAAEQQSSNGPVKKSMREKAVERRSVNKEHNSNFKAGYIPIDEDRLHKTGLRGRKGNLAICVIILLFILAVINLIITLVIWAVIRIGPNGCDSMEFHESGLLRFKQVSDMGVIHPLYKSTVGGRRNENLVITGNNQPIVFQQGTTKLSVENNKTSITSDIGMQFFDPRTQNILFSTDYETHEFHLPSGVKSLNVQKASTERITSNATSDLNIKVDGRAIVRGNEGVFIMGKTIEFHMGGNMELKAENSIILNGSVMVSTTRLPSSSSGDQLGSGDWVRYKLCMCADGTLFKVQVTSQNMGCQISDNPCGNWH [T317W]
Second: MAAAAAAAAEQQSSNGPVKKSMREKAVERRSVNKEHNSNFKAGYIPIDEDRLHKTGLRGRKGNLAICVIILLFILAVINLIITLVIWAVIRIGPNGCDSMEFHESGLLRFKQVSDMGVIHPLYKSTVGGRRNENLVITGNNQPIVFQQGTTKLSVENNKTSITSDIGMQFFDPRTQNILFSTDYETHEFHLPSGVKSLNVQKASTERITSNATSDLNIKVDGRAIVRGNEGVFIMGKTIEFHMGGNMELKAENSIILNGSVMVSTTRLPSSSSGDQLGSGDWVRYKLCMCADGTLFKVQVTSQNMGCQISDNPCGNVH [T317V]
The “SGCB cell-surface expression functional score (log10)” value of the first is higher: 0.32 for the first, -0.26 for the second.

Compared with MAAAAAAAAEQQSSNGPVKKSMREKAVERRSVNKEHNSNFKAGYIPIDEDRLHKTGLRGRKGNLAICVIILLFILAVINLIITLVIWAVIRIGPNGCDSMEFHESGLLRFKQVSDMGVIHPLYKSTVGGRRNENLVITGNNQPIVFQQGTTKLSVENNKTSITSDIGMQFFDPRTQNILFSTDYETHEFHLPSGVKSLNVQKASTERITSNATSDLNIKVDGRAIVRGNEGVFIMGKTIEFHMGGNMELKAENSIILNGSVMVSTTRLPSSSSGDQLGSGDWVRYKLCMCADGTLFKVQVTSQNMGCQISDNPCGNRH [T317R], MAAAAAAAAEQQSSNGPVKKSMREKAVERRSVNKEHNSNFKAGYIPIDEDRLHKTGLRGRKGNLAICVIILLFILAVINLIITLVIWAVIRIGPNGCDSMEFHESGLLRFKQVSDMGVIHPLYKSTVGGRRNENLVITGNNQPIVFQQGTTKLSVENNKTSITSDIGMQFFDPRTQNILFSTDYETHEFHLPSGVKSLNVQKASTERITSNATSDLNIKVDGRAIVRGNEGVFIMGKTIEFHMGGNMELKAENSIILNGSVMVSTTRLPSSSSGDQLGSGDWVRYKLCMCADGTLFKVQVTSQNMGCQISDNPCGNYH [T317Y] is higher in “SGCB cell-surface expression functional score (log10)” value: -0.1 for the first, 0.51 for the second.
